This passage reports Kd and IC50 results from patent US6762290.

Series [1] has as its target VEGFR2 (KDR) extracellular domain/Fc (Homo sapiens) (UniProt P35968). The series is described as follows: filter. The settings on record: 2'-F pyrimidines.
A further series has as its target c-Met/Fc (UniProt P08581). The series can be described thus: filter. The settings on record: 2'-F pyrimidines.
The target in series [2] is VEGFR1 (Flt-1) extracellular domain/Fc (UniProt P17948). The series can be described thus: filter. The following applies: 2'-F pyrimidines; HBSMC, 37 C.
Sequence of VEGFR1 (Flt-1) extracellular domain/Fc (P17948 27-758): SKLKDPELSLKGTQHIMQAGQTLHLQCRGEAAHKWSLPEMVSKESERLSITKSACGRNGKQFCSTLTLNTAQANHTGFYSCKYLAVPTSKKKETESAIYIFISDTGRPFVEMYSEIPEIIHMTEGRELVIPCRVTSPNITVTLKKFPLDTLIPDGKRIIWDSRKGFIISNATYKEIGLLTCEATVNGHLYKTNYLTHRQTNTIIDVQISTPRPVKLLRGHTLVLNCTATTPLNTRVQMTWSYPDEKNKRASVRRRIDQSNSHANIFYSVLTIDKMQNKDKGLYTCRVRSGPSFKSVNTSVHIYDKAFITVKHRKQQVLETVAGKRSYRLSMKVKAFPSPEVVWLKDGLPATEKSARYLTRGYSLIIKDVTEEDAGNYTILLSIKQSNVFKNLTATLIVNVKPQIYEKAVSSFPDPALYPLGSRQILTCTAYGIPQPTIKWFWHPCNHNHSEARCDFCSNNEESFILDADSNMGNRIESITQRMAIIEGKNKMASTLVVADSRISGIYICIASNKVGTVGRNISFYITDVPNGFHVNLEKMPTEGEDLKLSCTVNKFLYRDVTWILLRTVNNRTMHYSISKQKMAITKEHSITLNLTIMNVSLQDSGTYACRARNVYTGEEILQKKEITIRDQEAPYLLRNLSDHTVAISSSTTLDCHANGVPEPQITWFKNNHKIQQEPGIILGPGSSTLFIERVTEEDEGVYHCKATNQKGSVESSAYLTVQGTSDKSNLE
In series [3] the target is VEGF receptors on HUVEC (VEGFR2/KDR) (Homo sapiens) (UniProt P35968). The series is described as follows: competition. The settings on record: 2'-F pyrimidines; inhibition of 125I-VEGF-165 binding to HUVEC.
Sequence of VEGF receptors on HUVEC (VEGFR2/KDR) (Homo sapiens) (P35968 20-1356): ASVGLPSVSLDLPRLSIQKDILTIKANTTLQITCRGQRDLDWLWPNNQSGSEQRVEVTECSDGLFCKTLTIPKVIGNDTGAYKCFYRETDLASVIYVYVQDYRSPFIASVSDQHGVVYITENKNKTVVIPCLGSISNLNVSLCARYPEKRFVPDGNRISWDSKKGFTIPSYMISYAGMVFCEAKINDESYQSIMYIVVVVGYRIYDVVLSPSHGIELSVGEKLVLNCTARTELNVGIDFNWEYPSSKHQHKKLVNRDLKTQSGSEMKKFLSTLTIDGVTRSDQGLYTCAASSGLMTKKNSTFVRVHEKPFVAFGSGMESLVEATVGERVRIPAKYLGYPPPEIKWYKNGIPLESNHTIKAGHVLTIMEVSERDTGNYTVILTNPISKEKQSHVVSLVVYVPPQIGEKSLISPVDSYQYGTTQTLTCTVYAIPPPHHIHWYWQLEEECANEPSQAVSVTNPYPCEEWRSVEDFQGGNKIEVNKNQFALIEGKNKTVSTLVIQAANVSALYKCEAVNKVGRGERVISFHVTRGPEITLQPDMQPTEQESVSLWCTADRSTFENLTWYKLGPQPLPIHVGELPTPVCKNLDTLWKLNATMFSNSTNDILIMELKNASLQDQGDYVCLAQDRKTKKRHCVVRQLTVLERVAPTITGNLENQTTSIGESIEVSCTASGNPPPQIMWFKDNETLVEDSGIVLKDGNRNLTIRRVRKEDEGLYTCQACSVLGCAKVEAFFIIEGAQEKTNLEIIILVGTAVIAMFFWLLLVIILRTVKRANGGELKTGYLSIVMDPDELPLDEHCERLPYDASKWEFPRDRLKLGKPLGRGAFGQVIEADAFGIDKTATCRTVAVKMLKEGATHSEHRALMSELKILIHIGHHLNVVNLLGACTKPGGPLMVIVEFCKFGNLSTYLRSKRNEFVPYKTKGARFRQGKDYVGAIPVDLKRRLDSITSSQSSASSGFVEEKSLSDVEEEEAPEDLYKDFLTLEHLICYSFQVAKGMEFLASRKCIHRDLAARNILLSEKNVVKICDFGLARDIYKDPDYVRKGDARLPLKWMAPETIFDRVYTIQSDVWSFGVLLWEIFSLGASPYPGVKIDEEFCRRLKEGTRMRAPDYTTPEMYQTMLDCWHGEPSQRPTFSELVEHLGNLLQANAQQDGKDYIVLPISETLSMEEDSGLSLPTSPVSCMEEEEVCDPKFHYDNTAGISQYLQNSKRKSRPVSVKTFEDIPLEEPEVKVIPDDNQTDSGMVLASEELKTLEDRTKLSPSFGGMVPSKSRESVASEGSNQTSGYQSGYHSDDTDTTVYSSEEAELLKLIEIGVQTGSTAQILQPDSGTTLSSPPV

Sequence of VEGFR2 (KDR) extracellular domain/Fc (Homo sapiens) (P35968 20-764): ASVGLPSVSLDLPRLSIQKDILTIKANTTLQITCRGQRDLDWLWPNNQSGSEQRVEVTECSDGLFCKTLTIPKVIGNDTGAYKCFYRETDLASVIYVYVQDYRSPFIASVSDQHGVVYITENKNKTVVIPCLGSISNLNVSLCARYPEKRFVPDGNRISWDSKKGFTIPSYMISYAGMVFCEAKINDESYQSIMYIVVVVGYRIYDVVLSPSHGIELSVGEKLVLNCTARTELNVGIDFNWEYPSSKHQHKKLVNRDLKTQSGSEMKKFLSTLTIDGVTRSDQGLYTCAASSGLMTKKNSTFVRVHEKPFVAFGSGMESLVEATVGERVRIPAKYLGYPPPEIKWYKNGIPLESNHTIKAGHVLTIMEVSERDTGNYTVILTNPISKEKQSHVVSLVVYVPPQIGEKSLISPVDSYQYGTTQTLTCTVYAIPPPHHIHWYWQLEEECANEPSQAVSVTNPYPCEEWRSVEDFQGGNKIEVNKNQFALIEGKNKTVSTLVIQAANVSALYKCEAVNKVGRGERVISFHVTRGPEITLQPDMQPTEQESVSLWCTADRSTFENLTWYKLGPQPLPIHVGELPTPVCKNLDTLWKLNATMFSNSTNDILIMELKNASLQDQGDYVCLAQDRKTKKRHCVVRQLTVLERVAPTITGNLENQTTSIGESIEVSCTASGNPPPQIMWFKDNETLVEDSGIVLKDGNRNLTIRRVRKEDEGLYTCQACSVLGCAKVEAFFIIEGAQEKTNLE
Sequence of c-Met/Fc (P08581 25-932): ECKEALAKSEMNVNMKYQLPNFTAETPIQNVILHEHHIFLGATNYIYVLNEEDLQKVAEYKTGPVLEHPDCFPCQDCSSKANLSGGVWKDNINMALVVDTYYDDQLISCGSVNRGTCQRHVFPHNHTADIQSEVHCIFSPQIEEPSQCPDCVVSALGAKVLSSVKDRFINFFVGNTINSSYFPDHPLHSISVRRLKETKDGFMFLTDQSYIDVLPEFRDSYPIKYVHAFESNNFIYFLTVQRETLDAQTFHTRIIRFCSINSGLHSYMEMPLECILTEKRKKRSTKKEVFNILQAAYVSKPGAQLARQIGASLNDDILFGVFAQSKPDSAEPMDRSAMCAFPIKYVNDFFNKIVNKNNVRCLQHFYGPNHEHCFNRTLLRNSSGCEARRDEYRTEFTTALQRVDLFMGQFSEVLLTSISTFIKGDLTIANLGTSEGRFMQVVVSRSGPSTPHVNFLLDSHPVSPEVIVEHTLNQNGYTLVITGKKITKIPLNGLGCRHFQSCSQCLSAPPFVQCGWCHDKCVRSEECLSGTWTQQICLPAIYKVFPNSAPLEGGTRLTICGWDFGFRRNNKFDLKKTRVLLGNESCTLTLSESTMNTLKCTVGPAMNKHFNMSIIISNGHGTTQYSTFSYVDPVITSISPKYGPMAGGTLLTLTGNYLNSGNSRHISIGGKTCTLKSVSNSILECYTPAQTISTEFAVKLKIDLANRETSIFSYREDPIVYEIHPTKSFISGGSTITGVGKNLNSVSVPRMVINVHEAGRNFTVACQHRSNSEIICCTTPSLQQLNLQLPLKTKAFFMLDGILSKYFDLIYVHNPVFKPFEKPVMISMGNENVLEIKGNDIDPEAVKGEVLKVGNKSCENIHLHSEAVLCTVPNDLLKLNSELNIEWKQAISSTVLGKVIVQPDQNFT

Sequence “GGGAGGACGAUGCGGNNNNNNNNNNNNNNNNNNNNNNNNNNNNNNNNNNNNNNNNCAGACGACUCGCCCGA [KDR SELEX round 6 pool]” displayed a Kd in series [1] (HBSMC (Mg, Ca), 37 C) of 0.44 nM.

With “GGGAGGACGAUGCGGNNNNNNNNNNNNNNNNNNNNNNNNNNNNNNNNNNNNNNNNCAGACGACUCGCCCGA [KDR SELEX round 5 pool]”, the Kd was 74 nM with c-Met/Fc (specificity control for Fc binding); 0.83 nM in series [1] (HBSMC, 37 C); 0.76 nM in series [1] (comparison with cMet/Fc).

As for “GGGAGGACGAUGCGGNNNNNNNNNNNNNNNNNNNNNNNNNNNNNNNNNNNNNNNNCAGACGACUCGCCCGA [40N7 starting random library (round 0)]”, the Kd amounted to 58 nM in the series with c-Met/Fc (specificity control); 0.2 nM in series [2]; 36 nM in series [1] (HBSMC, 37 C); 361 nM in series [1] (as printed, differs from 36 ± 3 nM in Table 1 legend).

Turning to “GGGAGGACGAUGCGGNNNNNNNNNNNNNNNNNNNNNNNNNNNNNNNNNNNNNNNNCAGACGACUCGCCCGA [KDR SELEX round 3 pool]”, the Kd in series [1] (HBSMC, 37 C) was 0.8 nM.

“GGGAGGACGAUGCGGNNNNNNNNNNNNNNNNNNNNNNNNNNNNNNNNNNNNNNNNCAGACGACUCGCCCGA [KDR SELEX round 4 pool]” came in with a Kd in series [1] (HBSMC, 37 C) of 0.581 nM.

With “GGGAGGACGAUGCGGAUCAUACCGGGUCAUAACACCGNUCACGGGGCCUUNUCGUCAGACGACUCGCCCGA [K24]”, the Kd in series [1] (circularly permuted family member) turned out to be 0.97 nM.

Take “GGGAGGACGAUGCGGNNNNNNNNNNNNNNNNNNNNNNNNNNNNNNNNNNNNNNNNCAGACGACUCGCCCGA [KDR SELEX round 2 pool]”: the Kd in series [1] (HBSMC, 37 C) worked out at 0.68 nM.

Take “GGGAGGACGAUGCGGNNNNNNNNNNNNNNNNNNNNNNNNNNNNNNNNNNNNNNNNCAGACGACUCGCCCGA [Flt-1 SELEX round 5 pool]”: in series [2], the Kd was 0.093 nM.

Sequence “GGGAGGACGAUGCGGACANAUAACACAGGGCCUGCUUGGAUCACACUGAUUGCGCCCAGACGACUCGCCCGA [K17]” had a Kd in series [1] of 0.24 nM. The sequence also returned an IC50 in series [3] of 163 nM.

Take “GGGAGGACGAUGCGGAGCACUUGACCCACNACCAGAAAGCCAGCCCAGACGACUCGCCCGA [K6]”: in series [1] (30N clone), the Kd was 0.98 nM.

The term Kd denotes the concentration at which binding is half-saturated. The term IC50 denotes the concentration needed to halve the response being measured. Low readings indicate greater potency, high ones weaker potency.
